Measurements from patent US12564609B2, “Hematopoietic stem cell engraftment with a combination of agents” (The Board of Trustees of the Leland Stanford Junior …, priority 2020, dated 2026).

B1: SCF: recombinant murine stem cell factor (PeproTech), ligand of CD117 (protein, UniProt P20826 26-190, looked up)
Soluble KIT ligand: KEICGNPVTDNVKDITKLVANLPNDYMITLNYVAGMDVLPSHCWLRDMVIQLSLSLTTLLDKFSNISEGLSNYSIIDKLGKIVDDLVLCMEENAPKNIKESPKRPETRSFTPEEFFSIFNRSIDAFKDFMVASDTSDCVLSSTLGPEKDSRVSVTKPFMLPPVAA
B2: JSP191: anti-human CD117 mAb, humanized form of SR1, aglycosylated IgG1 (antibody, chains of the INN, looked up, V domains shown)
VH: QVQLVQSGAEVKKPGASVKVSCKASGYTFTSYNMHWVRQAPGQGLEWMGVIYSGNGDTSYNQKFKGRVTITADKSTSTAYMELSSLRSEDTAVYYCARERDTRFGNWGQGTLVTVSS
VL: DIVMTQSPDSLAVSLGERATINCRASESVDIYGNSFMHWYQQKPGQPPKLLIYLASNLESGVPDRFSGSGSGTDFTLTISSLQAEDVAVYYCQQNNEDPYTFGGGTKVEIK

Columns and labels:
[1] = test system: hematopoietic stem and progenitor cells; assay: In vivo HSC depletion by anti-CD117 mAb in combination with AZA; parameters: species or system C57BL/6 mice; conditions: 1 μg exogenous murine SCF for 5 days in mice treated with ACK2 and AZA, day 11
Description: A. Schematic of treatment protocol. C57BL/6 mice were injected retroorbital with single dose of ACK2 500 μg 5 days prior start treatment with AZA. AZA was administered in dose 5 mg/kg/d daily for 5 days. Mice were sacrificed 6, 10, 17 and 20 days after first dose of AZA and bone marrow (BM) and spleens were harvested and analyzed for HSC-depletion and depletion of mature myeloid and lymphoid cells. […] Magnification 100 μm. C. Absolute numbers of the different HSPC compartments in the BM and spleen of untreated controls and mice treated with ACK2 in combination with AZA at 6, 10, 17 20 days after start AZA as measured by flow cytometry; Lin^−Sca1^+c-Kit^+(LSK)CD150+CD48^− (LT-HSC), LSKCD150^−CD48^− (ST-HSC), LSKCD150^+CD48^+ (MPP2), LSKCD150^−CD48^+ (MPP3/4). Data represent mean±SD (n=3-4 per group per timepoint). Statistics were calculated Mann-Whitney test (*P<0.05). […] ACK2 and 2B8 were administered as a single dose of 500 μg retroorbital 5 days prior treatment with AZA; AZA was given at dose 5 mg/kg/d for 5 days. BM was analyzed at d6, d10 and d20 after the start of AZA. […] Statistics were calculated by Kruskal-Wallis test (*P<0.05, ***P<0.001). […] Mice were sacrificed at day 11 after first dose of AZA and BM and spleen were analyzed for HSC-depletion. […] Statistics were calculated by Mann-Whitney test (*P<0.05, ns=non-significant). […]

CD117 = molecular target: T1, CD117 (Homo sapiens, UniProt P10721); conditions: children with SCID, single agent conditioning prior to allogeneic HCT; cited from earlier work
T1 construct: JSP191, used as single agent conditioning prior to allogeneic HCT in children with SCID; endogenous in cells; host or cells: hematopoietic stem and progenitor cells of human SCID patients (in vivo, clinical trial)
T1 sequence (P10721 26-976): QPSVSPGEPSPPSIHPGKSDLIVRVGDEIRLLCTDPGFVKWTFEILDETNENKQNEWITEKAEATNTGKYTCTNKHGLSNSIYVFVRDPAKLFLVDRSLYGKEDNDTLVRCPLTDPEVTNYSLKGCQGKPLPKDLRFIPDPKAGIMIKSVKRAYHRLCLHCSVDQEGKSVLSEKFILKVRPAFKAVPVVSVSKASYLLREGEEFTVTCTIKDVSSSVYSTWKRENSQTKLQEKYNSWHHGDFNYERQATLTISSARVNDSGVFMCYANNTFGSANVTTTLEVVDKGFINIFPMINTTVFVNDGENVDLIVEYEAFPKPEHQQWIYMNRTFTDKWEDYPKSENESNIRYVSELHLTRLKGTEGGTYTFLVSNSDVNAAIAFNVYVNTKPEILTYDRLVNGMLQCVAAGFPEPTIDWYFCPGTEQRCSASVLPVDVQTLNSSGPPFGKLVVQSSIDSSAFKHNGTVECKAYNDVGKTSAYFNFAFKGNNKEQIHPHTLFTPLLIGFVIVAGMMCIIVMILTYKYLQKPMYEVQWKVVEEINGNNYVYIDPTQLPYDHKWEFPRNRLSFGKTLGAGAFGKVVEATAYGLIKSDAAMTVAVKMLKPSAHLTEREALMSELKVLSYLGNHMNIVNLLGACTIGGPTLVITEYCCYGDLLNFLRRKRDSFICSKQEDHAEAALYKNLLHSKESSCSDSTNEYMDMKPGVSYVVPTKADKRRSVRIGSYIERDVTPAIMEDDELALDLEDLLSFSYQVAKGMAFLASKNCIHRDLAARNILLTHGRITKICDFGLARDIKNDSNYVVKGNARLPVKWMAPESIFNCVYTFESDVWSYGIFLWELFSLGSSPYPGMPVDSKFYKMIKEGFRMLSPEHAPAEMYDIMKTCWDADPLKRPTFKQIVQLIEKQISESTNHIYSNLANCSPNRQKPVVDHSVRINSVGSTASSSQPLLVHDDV

human MDS HSC = conditions: MDS-xenografted mice; cited from earlier work
HSC = conditions: non-human primates; cited from earlier work

Row | Molecule | ST-HSC, MPP2 and MPP3/4 in the bone marrow [1] | recovery of LT-HSC in the bone marrow [1] | long-term HSC engraftment (CD117) | tolerability (CD117) | depletion of human MDS HSC (human MDS HSC) | HSC elimination and off-target toxicity (HSC)
1 | B1 | no changes | faster recovery of LT-HSC | – | – | – | –
2 | B2 | – | – | all showed evidence of long-term HSC engraftment | tolerated JSP191 well, without safety issues | depletes human MDS HSC | can eliminate HSC with little to no off-target toxicity
